Square brackets hold non-standard residues; d marks the D form. * marks the point of attachment. Heptanoyl = CCCCCCC(=O)*; Hexanoyl = CCCCCC(=O)*; Propionyl = CCC(=O)*; Butyryl = CCCC(=O)*
B1: IV-18-C Heptanoyl-RYYRWR-NH2 (peptide)
peptide: Heptanoyl-RYYRWR-NH2
SMILES: CCCCCCC(=O)N[C@@H](CCCNC(=N)N)C(=O)N[C@@H](Cc1ccc(O)cc1)C(=O)N[C@@H](Cc1ccc(O)cc1)C(=O)N[C@@H](CCCNC(=N)N)C(=O)N[C@@H](Cc1c[nH]c2ccccc12)C(=O)N[C@@H](CCCNC(=N)N)C(N)=O
notes: see recheck
B2: IV-16-C Propionyl-RYYRWR-NH2 (peptide)
peptide: Propionyl-RYYRWR-NH2
SMILES: CCC(=O)N[C@@H](CCCNC(=N)N)C(=O)N[C@@H](Cc1ccc(O)cc1)C(=O)N[C@@H](Cc1ccc(O)cc1)C(=O)N[C@@H](CCCNC(=N)N)C(=O)N[C@@H](Cc1c[nH]c2ccccc12)C(=O)N[C@@H](CCCNC(=N)N)C(N)=O
notes: see recheck
B3: IV-12-B Ac-RY(D)YR(D)WNH2 (peptide)
peptide: Ac-R[dY]Y[dR]WR-NH2
notes: It is not clear from the print which residues the (D) marks belong to, nor whether the last Arg is missing on purpose
B4: IV-17-C Hexanoyl-RYYRWR-NH2 (peptide)
peptide: Hexanoyl-RYYRWR-NH2
SMILES: CCCCCC(=O)N[C@@H](CCCNC(=N)N)C(=O)N[C@@H](Cc1ccc(O)cc1)C(=O)N[C@@H](Cc1ccc(O)cc1)C(=O)N[C@@H](CCCNC(=N)N)C(=O)N[C@@H](Cc1c[nH]c2ccccc12)C(=O)N[C@@H](CCCNC(=N)N)C(N)=O
B5: IV-15-A Butryl-RYYRWR-NH2 (peptide)
peptide: Butyryl-RYYRWR-NH2
SMILES: CCCC(=O)N[C@@H](CCCNC(=N)N)C(=O)N[C@@H](Cc1ccc(O)cc1)C(=O)N[C@@H](Cc1ccc(O)cc1)C(=O)N[C@@H](CCCNC(=N)N)C(=O)N[C@@H](Cc1c[nH]c2ccccc12)C(=O)N[C@@H](CCCNC(=N)N)C(N)=O

Each binder was assayed against T1, human ORL-1 receptor (opioid receptor like 1) (human, UniProt P41146 1-370) (assay: [3H]nociceptin displacement at ORL1).
T1 construct: whole, on cells; Assays were run on membranes of CHO cells transfected with human ORL-1; also called opiate receptor like 1; nociceptin receptor
T1 sequence (P41146 whole entry): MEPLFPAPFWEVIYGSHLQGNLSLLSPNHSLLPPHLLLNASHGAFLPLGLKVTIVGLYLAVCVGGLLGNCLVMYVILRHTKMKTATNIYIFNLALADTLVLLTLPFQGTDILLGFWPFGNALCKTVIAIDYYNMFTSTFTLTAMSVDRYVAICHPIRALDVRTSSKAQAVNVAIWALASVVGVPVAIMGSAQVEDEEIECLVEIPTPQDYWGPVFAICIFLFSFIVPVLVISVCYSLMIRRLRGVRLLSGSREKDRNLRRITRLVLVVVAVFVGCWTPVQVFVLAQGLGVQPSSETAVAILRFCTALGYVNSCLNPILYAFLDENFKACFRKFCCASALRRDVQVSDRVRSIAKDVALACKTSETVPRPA

Binder	IC50 [nM]
Ac-RYYRWR-NH2 (also called parent peptide) [Ac-RYYRWR-NH2]	0.72
B1	2.6
B2	1.2
B3	1140
B4	2.6
B5	4.3

What follows are binders tested against T1, human ORL-1 receptor (opioid receptor …) (assay: cell-based or functional assay).

Binder	[^35S]GTPγS Binding EC50 [nM]	[^35S]GTPγS Binding Percent Stimulation [%]
Ac-RYYRWR-NH2 (also called parent peptide) [Ac-RYYRWR-NH2]	1.2	100
B1	16.9	54
B2	22.3	82
B3	> 10000	< 10
B4	–	18
B5	35.3	63
